The data set deals with the molecule itself. In words: electron microscopy.

Consider one protein from article doi:10.1101/060434 (bioRxiv, 2016).

B1: hepatitis E virus-like particle (HEV-LP) of the HEV ORF2 capsid protein, amino acids 368-606 (p239) (domain or fragment, UniProt P33426 368-606, looked up)
chain: IALTLFNLADTLLGGLPTELISSAGGQLFYSRPVVSANGEPTVKLYTSVENAQQDKGIAIPHDIDLGESRVVIQDYDNQHEQDRPTPSPAPSRPFSVLRANDVLWLSLTAAEYDQSTYGSSTGPVYVSDSVTLVNVATGAQAVARSLDWTKVTLDGRPLSTIQQYSKTFFVLPLRGKLSFWEAGTTKAGYPYNYNTTASDQLLVENAAGHRVAISTYTTSLGAGPVSISAVAVLAPHSV
On to B1, for which the binding result was “binds”.
